Data taken from patent publication US20210070875A1 (SHANGHAI PHARMAEXPLORER, published 2021).

T1: human C5aR (human, UniProt P21730 1-350)
T1 chain: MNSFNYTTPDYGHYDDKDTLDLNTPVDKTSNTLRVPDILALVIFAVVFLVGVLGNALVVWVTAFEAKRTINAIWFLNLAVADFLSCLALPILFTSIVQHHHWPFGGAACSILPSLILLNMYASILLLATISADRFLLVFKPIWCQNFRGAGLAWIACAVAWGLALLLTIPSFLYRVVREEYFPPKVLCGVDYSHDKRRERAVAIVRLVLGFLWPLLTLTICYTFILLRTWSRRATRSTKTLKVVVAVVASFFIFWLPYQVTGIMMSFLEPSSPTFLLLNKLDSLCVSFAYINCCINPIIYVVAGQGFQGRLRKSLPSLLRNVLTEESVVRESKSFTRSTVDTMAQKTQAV

B1: 5F8E2C11 (antibody, V domains shown)
VH: QVQLRQSGPGLVQPSQSLSITCTVSGFSLTSYGVHWVRQSPGKGLEWLGVIWSGGSTDYNAAFISRLSISKDYSKSQIFLTMNSLQTDDTAIYYCARNSRLGNCFDYWGQGTTLTVSS
VL: DIVMSQSPSSLAVSAGEKVTMSCKSSQSLLNSRTRKNYLAWYQQKPGQSPKLLIYWASTRESGVPDRFTGSGSGTDFTLTISSVQAEDLAVYYCKQSYNLPAFGGGTKLEIK
B2: 9D5A12G7 (antibody, V domains shown)
VH: QVQLKQSGPGLVQPSQSLSITCTVSGFSLTSYGVHWVRQSPGKGLEWLGVIWSGGSTDYNAAFISRLSISKDNSKSQVFFKMNSLQADDTAIYYCARNGLLGNAMDYWGQGTSVTVSS
VL: DIVMSQSPSSLAVSAGEKVTMSCKSSQSLLSSRTRKNYLAWYQQKPGQSPKLLIYWASTRESGVPDRFTGSGSGTDFTLTISSVQTEDLAVYYCKQSYNLLTFGAGTTLELK
B3: 2A12B2B2 (antibody, V domains shown)
VH: QVQLQQPGADLVKPGASVKMSCKASGYILTTYWITWVKQRPGQGLEWIGDIHPGSGSTKYNEKFKSKATLTVDTSSSTAYMQLTRLSSEDSAVYYCARRDYWGQGTTLTVSS
VL: DIQMTQTTSSLSASLGDKVTISCRASQDISNYLSWYQQKPDGTVKLLIYWISRLHSGVPSRFSGSGSGTDFSLTISNLEQEDIATYFCQQGNSLPPTFGGGTKLEVK
B4: 46H2A11C7 (antibody, V domains shown)
VH: QVQLKQSGAELVKPGASVKISCRASGYTFTDYFINWVKQRPGQGLEWIGKIGPGSGNIYQNEKFKDKATLTTDTSSSTAYMQLSSLTSEDSAVYFCARWGIQRGWGQGTTLTVSS
VL: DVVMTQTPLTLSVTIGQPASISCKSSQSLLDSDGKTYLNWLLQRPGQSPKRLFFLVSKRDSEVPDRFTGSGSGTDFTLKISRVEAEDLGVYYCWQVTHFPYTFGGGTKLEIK
B5: 43E8F5B6 (antibody, V domains shown)
VH: EVQLQQSGPELVKPGASVKISCKASGYTFTDYYMSWMKQSHGKSLEWIGDINPNNGDNIYNQKFKGKATLTVDRSSSTAYMDLRSLTSEDSAVYYCARWYYYVSSFSYWYFDVWGTGTTVTVSS
VL: EIVLTQSPTTMAASPGEKITITCSATSSINSNYLHWYQQKPGFSPKLLIYRTSNLASGVPARFSGSGSGTSYSLTIGTMEAEDVATYYCQQGRTIPRTFGSGTKLEIK
B6: 42B5G7D1 (antibody, V domains shown)
VH: QVQLQQSGPELVKPGASVKISCKASGYVFSNSWMNWVKQRPGKGLEWIGRIDPGDGDTKYNGKFKGKATLTADKSSSTAYMQLSSLTSEDSAVYFCVRFYYGSNYVGYYFDYWGQGTTLTVSS
VL: DVLMTQTPLSLPVSLGDQASISCRSSQSIVQSNGNTYLEWYLQKPGQSPKLLIYKVSNRFSGVPDRFSGSGSGTDFTLKISRVEAEDLGVYYCFQGSLVPPTFGGGTKLEIK
B7: 8B5D1A9 (antibody, V domains shown)
VH: QVQLKQSGAELVKPGASVKISCKTSGYIFTDYYINWMKQRPGQGLEWIGKIGPGSGTTFYNEKFKGKATLTADKSSTTLYMQLSSLTAEDSAVYFCTRRGYYSSSYFYWGQGTTLTVSS
VL: DIVMTQSPSSLSVSAGEKVIMSCKSSQSLLNSERQKNYLAWYQQKPGQSPKLLIYGASTRESGVPDRFTGSGSGTDFTLTISSVQAEDLAVYYCLNDHSYPLTFGAGTKLELK

Target: T1, human C5aR
Assay: cell-based or functional assay
Further: test concentration or dose not given here.

Binder	C5a-induced human neutrophil migration, Celltiter-Glo fluorescence intensity value, Parallel sample 1 [fluorescence intensity]	C5a-induced human neutrophil migration, Celltiter-Glo fluorescence intensity value, Parallel sample 2 [fluorescence intensity]	C5a-induced human neutrophil migration, Celltiter-Glo fluorescence intensity value, Parallel sample 3 [fluorescence intensity]	C5a-induced human neutrophil migration, Celltiter-Glo fluorescence intensity value, Parallel sample 4 [fluorescence intensity]
B1	575	429	400	313
B2	175	211	575	611
B3	670	597	233	204
B4	1460	1510	1930	2040
B5	844	808	706	757
B6	1200	1480	298	335
B7	655	713	706	750
